In patent publication US20190119389A1 (POTENZA THERAPEUTICS, published 2019):
Substitutions are numbered along the chain they refer to. Numbers in names are those of the source.

T1: Cyno NRP-1 His (cynomolgus monkey, UniProt O14786 22-856 (human entry), limits assumed)
T1 construct: Recombinant monomeric protein; also called cynomolgus monkey NRP-1-His; cNRP-1; not shown: His tag
T1 chain: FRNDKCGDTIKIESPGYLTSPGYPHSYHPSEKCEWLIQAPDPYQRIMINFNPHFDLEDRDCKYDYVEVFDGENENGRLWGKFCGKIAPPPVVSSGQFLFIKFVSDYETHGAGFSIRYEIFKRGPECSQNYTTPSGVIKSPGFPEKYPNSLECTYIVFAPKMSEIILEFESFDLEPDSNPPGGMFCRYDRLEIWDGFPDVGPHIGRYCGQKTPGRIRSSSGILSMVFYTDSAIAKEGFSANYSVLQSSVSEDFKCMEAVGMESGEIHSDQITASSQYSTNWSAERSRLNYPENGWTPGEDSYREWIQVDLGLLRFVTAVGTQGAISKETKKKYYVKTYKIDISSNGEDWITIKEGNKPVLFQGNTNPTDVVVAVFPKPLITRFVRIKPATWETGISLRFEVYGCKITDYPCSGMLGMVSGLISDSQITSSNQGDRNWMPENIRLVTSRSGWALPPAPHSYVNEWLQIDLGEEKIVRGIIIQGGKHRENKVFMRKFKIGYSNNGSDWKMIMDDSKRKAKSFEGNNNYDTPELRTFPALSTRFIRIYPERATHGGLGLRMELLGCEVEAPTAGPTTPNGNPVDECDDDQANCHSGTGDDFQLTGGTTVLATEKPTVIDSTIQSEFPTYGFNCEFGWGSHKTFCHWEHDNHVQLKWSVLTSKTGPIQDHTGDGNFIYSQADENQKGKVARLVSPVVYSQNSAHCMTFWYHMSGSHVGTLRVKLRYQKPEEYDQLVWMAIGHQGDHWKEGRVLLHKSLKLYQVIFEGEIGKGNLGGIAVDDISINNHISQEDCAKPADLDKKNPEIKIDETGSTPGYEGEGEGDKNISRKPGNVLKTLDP

B1: MAB7 (antibody, V domains shown)
VH: EVQLVESGGGLVQPGGSLRLSCAASGFTFSSYWMEWVRQAPGKGLEWVARIKRDGSEKYYVDSVKGRFTISRDNAKNSLYLQMNSLRAEDTAVYYCARDQGYKTPTDFDLWGRGTLVTVSS
VL: DIQMTQSPSSLSASVGDRVTITCQASQDITNYLNWYQQKPGKAPKLLIYDASNLETGVPSRFSGSGSGTDFTFTISSLQPEDIATYYCQQSDVLPITFGGGTKVEIK
B2: MAB6 (antibody, V domains shown)
VH: QVQLVQSGAKVKKPGASVKVSCKASGYTFTSYYMHWVRQVPGQGLEWMGIINPQGGDTSYAQKFQGRVTMTRDTSTSTVYMELSSLRSEDTAVYYCARDRGMYYASGFNPWGQGTLVTVSS
VL: EIVMTQSPGTLSLSPGERATLSCRASQSVSSSYLAWYQQKPGQAPRLLIYGASNRATGIPDRFSGSGSGTDFTLTISRLEPEDFAVYYCQQLSSFPITFGGGTKVEIK
B3: MAB10 (antibody, V domains shown)
VH: EVQLLESGGGLVQPGGSLRLSCAASGFTFSSVAMVWVRQAPGKGLEWVSAISGSGGATYYADSVKGRFTISRDNSKNTLYLQMNSLRAEDTAVYYCAKDPGYDSSRYYYSNYGMDVWGQGTTVTVSS
VL: DIQMTQSPSSLSASVGDRVTITCRASQSISSYLNWYQQKPGKAPKLLIYGASSLQSGVPSRFSGSGSGTDFTLTISSLQPEDFATYYCQQTYSLYTFGGGTKVEIK
B4: MAB8 (antibody, V domains shown)
VH: B3 VH with S30A, V32Y, A50I, A57S
VL: B3 VL
B5: MAB9 (antibody, V domains shown)
VH: B3 VH with S30K, V32Y, A50I
VL: B3 VL
B6: MAB11 (antibody, V domains shown)
VH: B3 VH with K65E, N84S
VL: B3 VL
B7: MAB2 IgG4 S228P (antibody, V domains shown)
VH: QVQLVQSGAEVKKPGASVKVSCKASGYTFRSYYMLWVRQAPGQGLEWMGIIDPSDGSTSYAQKFQGRVTMTRDASTSTVYMELSSLRSEDTAVYYCARGARRITGYGMDVWGQGTTVIVSS
VL: DIQMTQSPSSVSASVGDRVTITCRASQGISSWLAWYQQKPGKAPKLLIYAASNLQSGVPSRFSGSGSGTDFTLTISSLQPEDFATYYCQQASVFPFTFGGGTKVEIKR
B8: MAB3 IgG4 S228P (antibody, V domains shown)
VH: QAQLVQSGAEVKKPGASVKVSCKASGYTFSRYYMHWVRQAPGQGLEWMGIINPLGGSTLYAQKFQGRVTMTRDTSTSTVYMELSSLRSEDTAVYYCARDLGYYGSGMHAWGQGTLVTVSS
VL: B7 VL with S31R, N53S, S92N, V93L, F94L
B9: MAB13 IgG4 S228P (antibody, V domains shown)
VH: QVQLQQWGAGLLKPSETLSLTCAVYGGSFRGYYWEWIRQPPGKGLEWIGEISHSGSTNYNPSLKSRVTISVDTSKNQFSLKLSSVTAADTAVYYCARARPYREPYGMDVWGQGTTVTVSS
VL: B7 VL with M4L, G28D, N53S, A91E, S92L, V93A, F96R
B10: MAB14 IgG4 S228P (antibody, V domains shown)
VH: B9 VH with I37S, S84P
VL: B7 VL with M4L, G28D, N53S, A91E, S92L, V93A, F96R
B11: MAB4 IgG4 S228P (antibody, V domains shown)
VH: B8 VH with A2V, A109V
VL: B7 VL with S31R, N53S, S92N, V93L, F94L
B12: MAB5 IgG4 S228P (antibody, V domains shown)
VH: B2 VH with K10E, V40A, N109G
VL: EIVMTQSPGTLSLSPGERATLSCRASQSVSSSYLAWYQQKPGQAPRLLIYGASNRATGIPDRFSGSGSGTDFTLTISRLEPEDFAVYYCQQLSSFPITFGGGTKVEIKR
B13: MAB12 IgG4 S228P (antibody, V domains shown)
VH: B3 VH with K65E
VL: DIQMTQSPSSLSASVGDRVTITCRASQSISSYLNWYQQKPGKAPKLLIYGASSLQSGVPSRFSGSGSGTDFTLTISSLQPEDFATYYCQQTYSLYTFGGGTKVEIKR
B14: MAB15 Fab (Fab, V domains shown)
VH: QVQLQQWGAGLLKPSETLSLTCAVYGGSFVKYYWSWIRQPPGKGLEWIGDIWHSGMTNYNPSLKSRVTISVDTSKNQFSLKLSSVTAADTAVYYCARGPGYDSSGYSRRFDPWGQGTLVTVSS
VL: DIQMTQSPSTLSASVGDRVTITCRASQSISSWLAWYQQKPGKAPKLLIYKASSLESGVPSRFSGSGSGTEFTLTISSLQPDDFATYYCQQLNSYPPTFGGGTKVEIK
B15: MAB13 Fab (Fab, V domains shown)
VH: B9 VH
VL: DIQLTQSPSSVSASVGDRVTITCRASQDISSWLAWYQQKPGKAPKLLIYAASSLQSGVPSRFSGSGSGTDFTLTISSLQPEDFATYYCQQELAFPRTFGGGTKVEIK

The binders below were run against T2, recombinant human NRP-1 (human, UniProt O14786 22-856, limits assumed) (assay: blocking ELISA: SEMA3A coated, biotinylated human NRP-1 preincubated with IgG1 antibody; competitor SEMA3A).
T2 construct: also called biotinylated human NRP-1
Target sequence in this assay (O14786 22-856 V179A limits assumed): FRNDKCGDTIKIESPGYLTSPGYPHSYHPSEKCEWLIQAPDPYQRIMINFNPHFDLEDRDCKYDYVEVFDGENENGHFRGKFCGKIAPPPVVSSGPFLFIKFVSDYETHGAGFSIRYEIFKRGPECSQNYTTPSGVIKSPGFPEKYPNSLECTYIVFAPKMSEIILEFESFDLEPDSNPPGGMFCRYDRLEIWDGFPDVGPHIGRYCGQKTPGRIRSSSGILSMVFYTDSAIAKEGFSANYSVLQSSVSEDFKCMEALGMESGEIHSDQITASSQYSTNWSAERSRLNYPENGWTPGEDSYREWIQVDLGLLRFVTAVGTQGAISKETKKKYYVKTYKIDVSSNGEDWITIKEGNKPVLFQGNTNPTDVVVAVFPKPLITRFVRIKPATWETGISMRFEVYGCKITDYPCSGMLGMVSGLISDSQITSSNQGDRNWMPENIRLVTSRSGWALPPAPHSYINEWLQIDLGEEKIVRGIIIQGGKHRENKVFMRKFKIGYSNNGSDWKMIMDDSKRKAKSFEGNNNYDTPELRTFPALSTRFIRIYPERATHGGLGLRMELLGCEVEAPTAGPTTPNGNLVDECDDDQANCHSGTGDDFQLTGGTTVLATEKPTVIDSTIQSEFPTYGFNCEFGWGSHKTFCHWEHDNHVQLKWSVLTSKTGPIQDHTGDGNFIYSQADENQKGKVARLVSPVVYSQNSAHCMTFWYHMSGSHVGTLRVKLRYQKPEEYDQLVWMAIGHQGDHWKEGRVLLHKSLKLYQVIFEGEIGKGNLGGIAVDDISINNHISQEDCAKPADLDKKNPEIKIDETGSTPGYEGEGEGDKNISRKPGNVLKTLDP

Row | IC50 [nM] | Binder
1 | 1.7 | B1
2 | 1.8 | B2
3 | 1.5 | B3
4 | 2 | B4
5 | 1.8 | B5
6 | 0.8 | B6

What follows are binders tested against T2, recombinant human NRP-1 (assay: blocking ELISA, average of n=2: SEMA3A coated, biotinylated human NRP-1 preincubated with IgG4 antibody; competitor SEMA3A).
Target sequence in this assay (O14786 22-856 V179A limits assumed): as above

Row | IC50 [nM] | Binder
7 | 2.6 | B7
8 | 2 | B8
9 | 0.9 | B9
10 | 0.6 | B10
11 | 2.3 | B11
12 | 2.9 | B12
13 | 1.2 | B13

The binders below were run against T3, Human NRP-1 His (human, UniProt O14786 22-856) (assay: BLI ForteBio, IgG1 N297A on AHQ sensor, 100 nM monomeric antigen, 1:1 fit).
T3 construct: Recombinant monomeric protein; Biotinylated in the MSD-SET assay; also called hNRP-1; not shown: His tag
Target sequence in this assay (O14786 22-856 V179A limits assumed): as above

Row | Kd [nM] | Binder
14 | 11.2 | B1
15 | 4.72 | B2
16 | 0.868 | B3
17 | 0.613 | B4
18 | 0.645 | B5
19 | 0.485 | B6

Each binder was assayed against T4, Mouse NRP-1 His (mouse, UniProt P97333 22-856) in the same assay as above.
T4 construct: Recombinant monomeric protein; also called mNRP-1; not shown: His tag
T4 sequence (P97333 22-856 limits assumed): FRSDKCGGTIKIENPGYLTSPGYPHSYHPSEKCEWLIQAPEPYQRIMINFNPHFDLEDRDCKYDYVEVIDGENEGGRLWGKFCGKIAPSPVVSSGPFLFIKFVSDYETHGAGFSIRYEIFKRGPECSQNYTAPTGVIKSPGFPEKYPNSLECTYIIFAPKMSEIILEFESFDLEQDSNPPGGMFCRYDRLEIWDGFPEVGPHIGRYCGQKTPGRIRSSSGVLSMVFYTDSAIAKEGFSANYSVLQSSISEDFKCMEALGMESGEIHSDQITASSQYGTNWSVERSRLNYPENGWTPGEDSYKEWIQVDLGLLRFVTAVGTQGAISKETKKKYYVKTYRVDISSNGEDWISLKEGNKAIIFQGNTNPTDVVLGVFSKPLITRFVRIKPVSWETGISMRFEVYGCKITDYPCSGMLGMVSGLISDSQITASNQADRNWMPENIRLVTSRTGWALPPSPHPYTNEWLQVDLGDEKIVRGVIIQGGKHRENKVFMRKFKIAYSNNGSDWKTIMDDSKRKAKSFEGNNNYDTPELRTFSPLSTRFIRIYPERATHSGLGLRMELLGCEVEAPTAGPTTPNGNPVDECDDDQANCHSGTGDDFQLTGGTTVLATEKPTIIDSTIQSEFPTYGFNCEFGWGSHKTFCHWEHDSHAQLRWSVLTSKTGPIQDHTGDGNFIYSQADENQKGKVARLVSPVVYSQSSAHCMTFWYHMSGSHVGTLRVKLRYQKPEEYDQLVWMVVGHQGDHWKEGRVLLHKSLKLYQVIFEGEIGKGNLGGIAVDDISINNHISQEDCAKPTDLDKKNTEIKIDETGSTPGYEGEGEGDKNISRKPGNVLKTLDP

Row | Kd [nM] | Binder
20 | 14.7 | B1
21 | 6.98 | B2
22 | 0.746 | B3
23 | 0.552 | B4
24 | 0.566 | B5
25 | 0.446 | B6

Target: T1, Cyno NRP-1 His
Experiment: as above

Row | Kd [nM] | Binder
26 | 10.9 | B1
27 | 5.54 | B2
28 | 0.866 | B3
29 | 0.642 | B4
30 | 0.643 | B5
31 | 0.48 | B6

Each binder was assayed against T3, Human NRP-1 His (assay: MSD-SET solution equilibrium titration, Fab).

Row | Kd [nM] | Binder
32 | 0.18 | B14
33 | 0.54 | B15

What follows are binders tested against T3, Human NRP-1 His (assay: BLI Octet QKe, IgG4 S228P on AHC sensor, multi-concentration monomeric antigen, global 1:1 fit).
Target sequence in this assay (O14786 22-856 V179A limits assumed): as the sequence (O14786 22-856 V179A limits assumed) above

Row | Kd [nM] | Binder
34 | 2.4 | B7
35 | 3.7 | B8
36 | 0.96 | B9
37 | 0.87 | B10
38 | 3.1 | B11
39 | 8.4 | B12
40 | 0.12 | B13

Each binder was assayed against T4, Mouse NRP-1 His in the same assay as above.

Row | Kd [nM] | Binder
41 | 5.1 | B7
42 | 4.4 | B8
43 | 3.7 | B9
44 | 2.7 | B10
45 | 2.3 | B11
46 | 6.6 | B12
47 | 0.16 | B13

Target: T1, Cyno NRP-1 His
Experiment: as above

Row | Kd [nM] | Binder
48 | 4.5 | B7
49 | 7.3 | B8
50 | 0.94 | B9
51 | 0.74 | B10
52 | 4.5 | B11
53 | 12 | B12
54 | 0.19 | B13

Each binder was assayed against T2, recombinant human NRP-1 (assay: blocking ELISA, average of n=2: human NRP-1 coated, VEGFA added with IgG4 antibody; competitor VEGFA).

Row | IC50 [nM] | Binder
55 | 2.9 | B9
56 | 2.5 | B10
57 | 3.2 | B13

Each binder was assayed against T2, recombinant human NRP-1 (assay: blocking ELISA: human NRP-1 coated, VEGFA added with IgG1 antibody; competitor VEGFA).
Target sequence in this assay (O14786 22-856 V179A limits assumed): as above

Row | IC50 [nM] | Binder
58 | 6.9 | B1
59 | 7.4 | B2
60 | 6.7 | B3
61 | 7.3 | B4
62 | 6.5 | B5
63 | 5.9 | B6
